One test relates to E13 chick DRG neurons. The test can be described thus: cDRG neurite outgrowth assay. The note with it: substrate coated with GST fusion protein. Format: cell-based. The protocol:
FIG. 2D. Differential effects of Amino-Nogo fragments on neurite outgrowth. Dissociated neurons from E13 chick DRGs were plated on 96 well dishes coated with lpmol protein per well and stained for neurofilament localization.
FIG. 2E. Neurite length per neuron were measured and plotted as percentage of PBS control with increasing concentration of dried protein for experiment described in […].
FIG. 6C. B24/32 peptide inhibits neurite outgrowth. Dissociated neurons from E13 chick DRG were plated onto 96 well dishes coated with 500 pmol of dried peptides as indicated and stained for neurofilament localization.
FIG. 6D. Neurite length per neuron was measured and plotted as percentage of PBS control for experiments as in (C).
(§1) It has been recognized that the Amino-Nogo-A protein inhibits non-neuronal cell spreading and axonal outgrowth when the protein is substrate bound (Chen, M. S., et al., Nature 403:434-439 (2000); Fournier, A. E., et al., Nature 409:341-346 (2001)). […] The later domain has been termed Δ20. To determine whether the NgR-interacting aa of Amino-Nogo-A described in Example 1 regulate cell spreading and axonal outgrowth, various fragments were expressed as GST fusion proteins and purified from E. coli. To generate GST fusion proteins, amino Nogo fragments were cloned in pGEX2T (Amersham Pharmacia). Native and soluble GST fusion proteins were expressed and purified as described (GrandPre, T., et al., Nature 403:439-444 (2000)). COS-7 binding assays were done as described (Fournier, A. E., et al., Nature 409:341-346 (2001)). Bound AP to COS-7 cells was measured using NIH image software. Fibroblast spreading and cDRG outgrowth assay were done as described (Fournier, A. E., et al., Nature 409:341-346 (2001)) with some modifications. Briefly, 50 μl of purified GST fusion protein or peptides diluted in PBS was pipetted into polylysine precoated 96 well plates (Becton Dickson Biocoat plates) and dried overnight at room temperature. For fibroblast spreading assay, subconfluent COS-7 cells were then plated for 1 hour in serum containing medium before fixation and staining with rho damine-phalloidin.
The same GST-Amino-Nogo proteins were tested for their ability to reduce neurite outgrowth from chick E13 DRG neurons. For cDRG outgrowth assay, dissociated E13 cDRG neurons were plated for 6 hours before fixation. […] Cell area, number of attached cells and neurite length were measured using the Imageexpress machine and software (Axon Instrument).
We reasoned that fusing the 24 aa segment of Amino-Nogo-A to NEP32 antagonist peptide might create a high affinity antagonist with a potency similar to the binding of AP-B4C-66 to NgR. […] Cell area, number of attached cells and neurite length were measured using the linageexpress machine and software (Axon Instrument).

Another test deals with COS-7 cells. The test can be described thus: Fibroblast spreading assay on dried GST fusion protein. Format: cell-based. To be noted: GST fusion protein presented as dried substrate. The method, then: FIG. 2A. Effects of Amino-Nogo fragments on fibroblast spreading and neurite outgrowth. Different effects of Amino-Nogo fragments on fibroblast spreading. COS-7 cells were allowed to attach and spread on slides with spots coated with 50 ng of dried GST fusion protein as indicated and stained for F-actin. GST-A: fusion protein of GST and A fragment (FIG. 1) of Amino-Nogo. GST-A, GST-B, GST-Δ20, GST-B4 and GST-B4C: fusion protein of GST and A, B, Δ20, B4 or B4C fragment (FIG. 1) of Amino-Nogo, respectively.
FIG. 2B. COS-7 cell area for experiments as in (A) was measured and plotted.
FIG. 2C. COS-7 cells were allowed to attach and spread on 96 well dishes coated with dried GST fusion proteins as indicated. Number of attached cells were counted and plotted as a function of the amount of various proteins dried per well in a 96 well dish.
as §1, with “For fibroblast spreading assay, subconfluent COS-7 cells were then plated for 1 hour in serum containing medium before fixation and staining with rho damine-phalloidin.” left out

In another test the test system is NgR mutants. Description: AP fusion protein binding to COS-7 cells expressing NgR deletion mutants. To be noted: COS-7 cells expressing NgR mutants; FIG. 3A. The text has this: FIG. 3A. Binding of Amino-Nogo to NgR requires LRR repeats. Binding of AP or AP fused Nogo fragments to COS-7 cells expressing NgR mutants as indicated. AP-B and AP-B4: AP fusion protein of B or B4 fragment of Amino-Nogo. Surface expression of NgR mutants was detected using anti-Myc antibodies.
Similarly, the cysteine rich LRR-NT and LRR-CT capping domains are essential for Amino-Nogo-B4C binding. […] NgR is part of gene family that includes NgR2 and NgR3. […] By these measures, the NgR requirements for Nogo-66 and Amino-Nogo-B4C binding are indistinguishable.

The next test has as its target T1, NgR (Homo sapiens, UniProt Q9BZR6).
T1 construct: expressed in transfected cells; host or cells: COS-7
T1 sequence (Q9BZR6 27-447): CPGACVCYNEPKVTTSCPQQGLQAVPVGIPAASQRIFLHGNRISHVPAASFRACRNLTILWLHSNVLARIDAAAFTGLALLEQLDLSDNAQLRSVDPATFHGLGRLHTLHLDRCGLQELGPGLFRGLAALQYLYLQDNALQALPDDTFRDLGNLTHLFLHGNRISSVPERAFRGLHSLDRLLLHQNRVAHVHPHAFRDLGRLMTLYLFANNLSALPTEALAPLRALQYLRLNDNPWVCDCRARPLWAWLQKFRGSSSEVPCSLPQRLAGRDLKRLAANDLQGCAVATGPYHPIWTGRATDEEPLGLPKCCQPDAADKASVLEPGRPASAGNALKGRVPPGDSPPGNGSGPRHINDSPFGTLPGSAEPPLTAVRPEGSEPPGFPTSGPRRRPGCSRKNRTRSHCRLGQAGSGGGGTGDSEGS
The test can be described thus: AP fusion protein binding to NgR expressing COS-7 cells. To be noted: AP fused Amino-Nogo fragments in conditioned media on NgR expressing COS-7 cells; 'No binding at' cells continue on the next line: AmNg A 150 nM; a.a. 1000-1018, a.a. 1005-1018, Amino of NgC 25 nM; a.a. 950-1004 50 nM; Amino of NgB 100 nM.
From the text: Several alkaline phosphatase (AP) fusion proteins containing various Nogo-A segments derived from regions between the amino terminus and the first hydrophobic segment were examined to identify the mechanism of Amino-Nogo-A action. To generate additional AP fusion proteins, human amino Nogo fragments were amplified and ligated to the pcAP6 vector digested with restriction enzymes EcoRI and XhoI as described (Fournier, A. E., et al., Nature 409:341-346 (2001)). Plasmids were then transfected into HEK293T cells and conditioned media were collected after 7 days. None of these fragments bind with high affinity to non-transfected COS-7 cells. […] This binding is saturable with a Kd indistinguishable from that for AP-Nogo-66 association with NgR (Table I). To better define the region responsible for Amino-Nogo interaction with NgR, a range of truncation mutants of Amino-Nogo were examined as AP fusion proteins. […] In fact, the NgR-interacting segment of Amino-Nogo is fully accounted for in the extreme carboxyl 24 amino acids (aa 995-1018, Amino-Nogo-A-24) (Table I and FIG. 1D). […] We named this domain (aa 995-1013) as Amino-Nogo-A-19.
Binding Kds for AP fused Amino-Nogo fragments were measured by applying conditioned media containing AP fusion protein to NgR expressing COS-7 cells. Bound AP was stained and measured.
as §1

Consider three molecules from US20090111753A1, “Nogo-A Polypeptide Fragments, Variant Nogo Receptor-1 Polypeptides, and Uses Thereof” (Yale University, priority 2004, published 2009).

Broadly, the Kd is the constant that tells how readily two partners part at equilibrium. Low values mean tighter binding, high ones weaker binding.

B1: B4C: fusion protein of GST and B4C fragment (carboxyl terminal 75 aa) of Amino-Nogo (protein)
chain: LLPPDVSALATQAEIESIVKPKVLVKEAEKKLPSDTEKEDRSPSAIFSAELSKTSVVDLLYWRDIKKTG
modifications: left off: large carriers
notes: fusion protein of GST and B4C fragment (carboxyl terminal 75 aa) of Amino-Nogo
As to B1, the “neurite outgrowth from chick E13 DRG neurons” value in the test on E13 chick DRG neurons is recorded as “not inhibitory for axonal growth”. The “COS-7 cell attachment and spreading” value with COS-7 cells was “do not alter COS-7 morphology”.

B2: a.a. 950-1018 (AmNg B4C): AP fusion protein of Amino-Nogo fragment B4C, aa 950-1018 (protein)
chain: LLPPDVSALATQAEIESIVKPKVLVKEAEKKLPSDTEKEDRSPSAIFSAELSKTSVVDLLYWRDIKKTG
modifications: left off: large carriers
As for B2, in the test on NgR mutants, the “binding to NgR with deletion of the CT domain” value is on record as “did not alter”; the “binding to NgR with deletions of any two LRRs” value is “eliminated binding”; the “requirement of LRR-NT and LRR-CT capping domains of NgR for binding” value was “essential”. The same molecule had a Kd with NgR of 3.51 ± 3.36 nM.

B3: B4: fusion protein of GST and B4 fragment (carboxyl terminal 150 aa) of Amino-Nogo (protein)
chain: SKTDSFSKLAREYTDLEVSHKSEIANAPDGAGSLPCTELPHDLSLKNIQPKVEEKISFSDDFSKNGSATSKVLLLPPDVSALATQAEIESIVKPKVLVKEAEKKLPSDTEKEDRSPSAIFSAELSKTSVVDLLYWRDIKKTG
modifications: left off: a dimerising Fc or GST
notes: fusion protein of GST and B4 fragment (carboxyl terminal 150 aa) of Amino-Nogo
For the molecule B3, in the test with E13 chick DRG neurons, the “neurite outgrowth from chick E13 DRG neurons” value is reported as “not inhibitory for axonal growth”. Moreover, the “COS-7 cell attachment and spreading” value in the test on COS-7 cells is “do not alter COS-7 morphology”.
